Test results published in patent US20030175270.

Columns and labels:
[1] = biological target: JAK2 immunoprecipitated from BMMC lysates (tyrosine-phosphorylated) (UniProt Q62120)
[2] = biological target: STAT3 immunoprecipitated from BMMC lysates (UniProt P42227)
[3] = biological target: Lyn immunoprecipitated from BMMC lysates (UniProt P25911)
[4] = biological target: Tyk2 immunoprecipitated from macrophage lysates (UniProt Q9R117)
[5] = biological target: JAK1 immunoprecipitated from BMMC lysates (UniProt P52332)
[6] = biological target: STAT5 immunoprecipitated from BMMC lysates (UniProt Q9JIA0)

JAK2 immunoprecipitated from BMMC lysates (tyrosine-phosphorylated), sequence (Q62120 whole entry): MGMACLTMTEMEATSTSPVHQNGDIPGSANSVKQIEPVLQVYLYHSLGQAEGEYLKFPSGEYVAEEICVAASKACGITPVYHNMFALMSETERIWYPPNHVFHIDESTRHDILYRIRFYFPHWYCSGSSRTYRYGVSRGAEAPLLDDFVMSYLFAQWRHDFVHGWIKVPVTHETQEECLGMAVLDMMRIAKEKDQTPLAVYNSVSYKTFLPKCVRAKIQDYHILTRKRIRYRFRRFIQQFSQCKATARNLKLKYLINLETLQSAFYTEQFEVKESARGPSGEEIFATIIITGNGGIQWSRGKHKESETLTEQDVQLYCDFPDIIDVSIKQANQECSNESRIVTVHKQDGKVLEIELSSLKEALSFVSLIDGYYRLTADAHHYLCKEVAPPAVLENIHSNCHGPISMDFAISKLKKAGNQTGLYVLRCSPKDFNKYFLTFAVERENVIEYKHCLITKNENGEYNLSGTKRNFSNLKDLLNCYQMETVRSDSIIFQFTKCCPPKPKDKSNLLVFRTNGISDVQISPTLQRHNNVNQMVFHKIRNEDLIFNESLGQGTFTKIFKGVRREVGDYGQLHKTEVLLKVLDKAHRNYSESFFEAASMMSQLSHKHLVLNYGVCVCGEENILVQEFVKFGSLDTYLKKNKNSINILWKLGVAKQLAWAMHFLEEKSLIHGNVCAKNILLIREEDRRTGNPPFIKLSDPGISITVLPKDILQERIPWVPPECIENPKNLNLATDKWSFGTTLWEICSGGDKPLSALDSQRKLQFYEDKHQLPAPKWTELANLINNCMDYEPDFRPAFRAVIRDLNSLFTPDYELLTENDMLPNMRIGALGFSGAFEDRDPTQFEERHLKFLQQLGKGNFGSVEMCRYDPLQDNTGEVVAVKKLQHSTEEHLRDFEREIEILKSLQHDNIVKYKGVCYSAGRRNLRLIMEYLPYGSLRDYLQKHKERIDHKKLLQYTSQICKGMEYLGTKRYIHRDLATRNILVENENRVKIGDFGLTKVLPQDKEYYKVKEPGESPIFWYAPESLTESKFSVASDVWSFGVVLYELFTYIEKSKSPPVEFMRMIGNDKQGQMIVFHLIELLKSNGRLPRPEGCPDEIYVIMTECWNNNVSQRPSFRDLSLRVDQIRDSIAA
JAK1 immunoprecipitated from BMMC lysates, sequence (P52332 whole entry): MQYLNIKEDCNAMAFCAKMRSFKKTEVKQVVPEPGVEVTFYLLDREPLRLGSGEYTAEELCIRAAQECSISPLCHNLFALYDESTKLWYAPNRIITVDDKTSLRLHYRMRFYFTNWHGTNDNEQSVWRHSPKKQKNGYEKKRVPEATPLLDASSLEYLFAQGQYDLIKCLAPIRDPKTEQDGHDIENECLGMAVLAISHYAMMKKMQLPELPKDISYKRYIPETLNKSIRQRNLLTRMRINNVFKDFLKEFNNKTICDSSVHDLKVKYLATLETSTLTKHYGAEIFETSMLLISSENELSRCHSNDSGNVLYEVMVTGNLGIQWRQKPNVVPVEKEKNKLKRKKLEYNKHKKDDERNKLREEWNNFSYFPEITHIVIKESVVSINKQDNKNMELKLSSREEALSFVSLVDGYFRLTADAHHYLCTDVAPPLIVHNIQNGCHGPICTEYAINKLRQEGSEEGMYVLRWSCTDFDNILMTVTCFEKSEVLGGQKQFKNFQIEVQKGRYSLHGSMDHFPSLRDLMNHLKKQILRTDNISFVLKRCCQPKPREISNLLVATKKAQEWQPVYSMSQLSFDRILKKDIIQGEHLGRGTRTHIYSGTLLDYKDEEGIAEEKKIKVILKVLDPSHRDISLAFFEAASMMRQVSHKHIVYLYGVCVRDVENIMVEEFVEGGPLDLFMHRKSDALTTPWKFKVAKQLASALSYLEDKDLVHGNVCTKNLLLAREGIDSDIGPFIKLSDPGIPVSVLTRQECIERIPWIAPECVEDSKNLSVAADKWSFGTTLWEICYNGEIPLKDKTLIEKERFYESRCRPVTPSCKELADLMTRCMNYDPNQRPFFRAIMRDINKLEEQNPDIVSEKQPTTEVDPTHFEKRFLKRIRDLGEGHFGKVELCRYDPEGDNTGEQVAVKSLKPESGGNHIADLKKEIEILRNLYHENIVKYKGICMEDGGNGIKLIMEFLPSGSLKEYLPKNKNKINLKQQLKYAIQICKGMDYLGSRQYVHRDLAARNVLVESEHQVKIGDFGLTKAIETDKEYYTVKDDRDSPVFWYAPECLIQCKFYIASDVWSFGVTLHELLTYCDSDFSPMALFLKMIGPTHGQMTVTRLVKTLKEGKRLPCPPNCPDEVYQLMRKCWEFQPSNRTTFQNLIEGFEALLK
Lyn immunoprecipitated from BMMC lysates, sequence (P25911 2-512): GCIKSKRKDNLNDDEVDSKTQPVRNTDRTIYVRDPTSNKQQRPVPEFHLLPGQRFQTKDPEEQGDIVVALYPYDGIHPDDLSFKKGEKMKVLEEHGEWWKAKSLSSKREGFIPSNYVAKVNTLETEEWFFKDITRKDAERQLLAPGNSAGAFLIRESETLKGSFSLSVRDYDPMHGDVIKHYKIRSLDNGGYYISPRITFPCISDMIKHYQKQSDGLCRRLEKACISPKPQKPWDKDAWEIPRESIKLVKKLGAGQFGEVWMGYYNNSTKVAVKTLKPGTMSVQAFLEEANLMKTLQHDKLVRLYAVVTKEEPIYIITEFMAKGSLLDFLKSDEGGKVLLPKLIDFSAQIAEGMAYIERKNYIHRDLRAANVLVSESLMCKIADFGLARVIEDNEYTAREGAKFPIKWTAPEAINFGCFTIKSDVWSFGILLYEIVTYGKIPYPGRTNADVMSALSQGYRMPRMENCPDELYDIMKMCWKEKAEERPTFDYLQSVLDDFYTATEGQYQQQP
STAT3 immunoprecipitated from BMMC lysates, sequence (P42227 2-770): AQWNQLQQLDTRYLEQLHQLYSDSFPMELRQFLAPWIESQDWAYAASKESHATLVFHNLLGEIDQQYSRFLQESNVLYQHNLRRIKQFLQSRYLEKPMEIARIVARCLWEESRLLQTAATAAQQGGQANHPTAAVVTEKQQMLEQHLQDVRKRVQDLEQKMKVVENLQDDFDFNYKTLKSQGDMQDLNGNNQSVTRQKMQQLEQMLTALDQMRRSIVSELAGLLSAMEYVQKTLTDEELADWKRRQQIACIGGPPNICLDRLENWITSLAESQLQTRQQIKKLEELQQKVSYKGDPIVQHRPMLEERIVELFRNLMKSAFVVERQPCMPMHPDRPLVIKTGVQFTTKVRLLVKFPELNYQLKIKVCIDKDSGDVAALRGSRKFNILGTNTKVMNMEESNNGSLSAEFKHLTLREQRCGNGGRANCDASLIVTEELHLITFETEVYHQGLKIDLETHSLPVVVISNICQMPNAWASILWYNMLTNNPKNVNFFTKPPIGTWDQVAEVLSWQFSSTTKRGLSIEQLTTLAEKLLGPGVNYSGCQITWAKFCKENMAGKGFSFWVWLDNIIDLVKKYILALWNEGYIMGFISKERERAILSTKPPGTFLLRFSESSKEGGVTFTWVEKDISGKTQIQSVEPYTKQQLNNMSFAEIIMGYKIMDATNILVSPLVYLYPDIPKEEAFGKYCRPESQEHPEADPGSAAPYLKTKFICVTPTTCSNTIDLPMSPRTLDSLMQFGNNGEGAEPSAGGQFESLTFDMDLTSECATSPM

Substance	tyrosine dephosphorylation in vitro (phosphatase assay) [1]	tyrosine dephosphorylation in vitro (phosphatase assay, immunoblot) [2]	tyrosine dephosphorylation in vitro (phosphatase assay, immunoblot) [3]	dephosphorylation of critical tyrosine residues in vitro (site-specific phospho-specific antibodies) [4]	dephosphorylation of critical tyrosine residues in vitro (site-specific phospho-specific antibodies) [5]	dephosphorylation of critical tyrosine residues in vitro (site-specific phospho-specific antibodies) [1]	tyrosine dephosphorylation in vitro (phosphatase assay, immunoblot) [1]	tyrosine dephosphorylation in vitro (phosphatase assay, immunoblot) [6]
PTPase-dead rCD45 (D1:C828S mutant)	PTPase-dead rCD45 (D1:C828S mutant) did not dephosphorylate JAK2							
recombinant CD45 (intracellular dual PTPase domains, Mr 97K, catalytic D1 and non-catalytic D2, lacking extracellular regions)		tyrosine dephosphorylation of STAT3 (FIGS. 3A and 3B) and STAT5 did not occur after incubation with rCD45, even at high concentrations of rCD45	rCD45 dephosphorylated Lyn in a dose-dependent manner	rCD45 does indeed dephosphorylate the critical tyrosine residues of JAK1, JAK2, and Tyk2 in vitro	rCD45 does indeed dephosphorylate the critical tyrosine residues of JAK1, JAK2, and Tyk2 in vitro	rCD45 does indeed dephosphorylate the critical tyrosine residues of JAK1, JAK2, and Tyk2 in vitro	rCD45 did, however, dephosphorylate JAK2 in vitro	tyrosine dephosphorylation of STAT3 (FIGS. 3A and 3B) and STAT5 did not occur after incubation with rCD45, even at high concentrations of rCD45
